Experimental data reported in US20050282739A1 (PALATIN TECHNOLOGIES, published 2005).
Where two headings read alike, the source gives them in different places. Square brackets hold non-standard residues; d marks the D form. Ends that are not written are not given here. Nle = CCCC[C@H](N)C(=O)O

How the values were obtained:
[1] = biological target: T1, human melanocortin-5 receptor (hMC5-R) (human, UniProt P33032 1-325); experiment: 125I-NDP-α-MSH competition, hMC5-R membranes
T1 construct: whole, on cells; membranes prepared from hMC5-R cells were used; also called Melanocortin Receptor 5
Experimental: (§1) The competitive inhibition binding assay was conducted using membranes prepared from hMC3-R, hMC4-R, hMC5-R, and B-16 mouse melanoma cells (containing MC1-R) using 0.4 nM ¹²⁵I-NDP-alpha-MSH (New England Nuclear, Boston, Mass., USA) in 50 mM HEPES buffer containing 1 mM MgCl₂, 2 mM CaCl₂, and 5 mM KCl, at pH 7.2. […] Incubation was for 90 minutes at room temperature, after which the assay mixture was filtered and the membranes washed three times with ice cold buffer. The filter was dried and counted in a gamma counter for remaining radioactivity bound to the membranes. 100% specific binding was defined as the difference in radioactivity (cpm) bound to cell membranes in the absence and presence of 1 μM α-MSH. […] Each assay was conducted in triplicate and the actual mean valves are described.
(§2) The first unnumbered peptide in Table 5 is the parent polypeptide, which is a γ-MSH analog specific for melanocortin receptors. The methods and assays set forth in Example 1 were followed.

[2] = biological target: T2, melanocortin-1 receptor (MC1-R) of B-16 mouse melanoma cells (mouse, UniProt Q01727 1-315); experiment: 125I-NDP-α-MSH competition, B-16 membranes
T2 construct: whole, on cells; membranes prepared from the cells were used; also called Melanocortin Receptor 1
Experimental: as §1, §2

[3] = biological target: T3, human melanocortin-3 receptor (hMC3-R) (human, UniProt P41968 1-323); experiment: 125I-NDP-α-MSH competition, hMC3-R membranes
T3 construct: whole, on cells; membranes prepared from hMC3-R cells were used; also called Melanocortin Receptor 3
Experimental: as §1, §2

[4] = biological target: T4, human melanocortin-4 receptor (hMC4-R) (human, UniProt P32245 1-332); experiment: 125I-NDP-α-MSH competition, hMC4-R membranes
T4 construct: whole, on cells; membranes prepared from hMC4-R cells were used; also called Melanocortin Receptor 4
Experimental: as §1, §2

[5] = biological target: T2, melanocortin-1 receptor (MC1-R) of B-16 …; experiment: 125I-NDP-α-MSH competition, B-16 membranes; remark: listed apart in the source
Experimental: as §1
(§3) The first unnumbered peptide in Table 3 is the parent polypeptide, which is a Nle³, D-Phe⁶ substituted γ-MSH analog specific for melanocortin receptors. The methods and assays set forth in Example 1 were followed.

[6] = biological target: T1, human melanocortin-5 receptor (hMC5-R); experiment: 125I-NDP-α-MSH competition, hMC5-R membranes; remark: listed apart in the source
Experimental: as §1, §3

[7] = biological target: T4, human melanocortin-4 receptor (hMC4-R); experiment: 125I-NDP-α-MSH competition, hMC4-R membranes; remark: listed apart in the source
Experimental: as §1, §3

[8] = biological target: T3, human melanocortin-3 receptor (hMC3-R); experiment: 125I-NDP-α-MSH competition, hMC3-R membranes; remark: listed apart in the source
Experimental: as §1, §3

T3 sequence (P41968 whole entry): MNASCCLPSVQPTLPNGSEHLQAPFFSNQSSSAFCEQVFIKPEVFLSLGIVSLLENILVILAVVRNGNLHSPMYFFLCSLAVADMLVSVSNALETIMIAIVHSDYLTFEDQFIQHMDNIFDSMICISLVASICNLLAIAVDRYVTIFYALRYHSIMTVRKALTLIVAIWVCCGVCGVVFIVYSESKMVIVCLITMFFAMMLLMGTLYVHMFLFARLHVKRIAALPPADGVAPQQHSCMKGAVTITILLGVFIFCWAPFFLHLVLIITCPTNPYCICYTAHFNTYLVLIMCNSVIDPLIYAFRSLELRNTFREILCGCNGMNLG
T1 sequence (P33032 whole entry): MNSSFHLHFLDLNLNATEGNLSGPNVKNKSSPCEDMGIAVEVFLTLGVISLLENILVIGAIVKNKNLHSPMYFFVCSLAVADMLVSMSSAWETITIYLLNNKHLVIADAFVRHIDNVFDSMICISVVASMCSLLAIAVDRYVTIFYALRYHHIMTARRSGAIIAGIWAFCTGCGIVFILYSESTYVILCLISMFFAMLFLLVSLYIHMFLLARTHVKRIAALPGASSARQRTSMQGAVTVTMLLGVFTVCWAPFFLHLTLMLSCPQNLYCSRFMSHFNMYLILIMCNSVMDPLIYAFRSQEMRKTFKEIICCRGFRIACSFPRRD
T2 sequence (Q01727 whole entry): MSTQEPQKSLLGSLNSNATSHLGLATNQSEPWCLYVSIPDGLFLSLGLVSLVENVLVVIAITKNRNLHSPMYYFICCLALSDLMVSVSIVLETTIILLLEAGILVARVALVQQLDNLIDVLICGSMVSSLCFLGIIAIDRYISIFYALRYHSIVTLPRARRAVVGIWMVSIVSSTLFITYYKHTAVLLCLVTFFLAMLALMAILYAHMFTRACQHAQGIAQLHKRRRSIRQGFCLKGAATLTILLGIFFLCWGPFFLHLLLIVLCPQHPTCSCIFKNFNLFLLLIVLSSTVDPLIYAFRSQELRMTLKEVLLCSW
T4 sequence (P32245 whole entry): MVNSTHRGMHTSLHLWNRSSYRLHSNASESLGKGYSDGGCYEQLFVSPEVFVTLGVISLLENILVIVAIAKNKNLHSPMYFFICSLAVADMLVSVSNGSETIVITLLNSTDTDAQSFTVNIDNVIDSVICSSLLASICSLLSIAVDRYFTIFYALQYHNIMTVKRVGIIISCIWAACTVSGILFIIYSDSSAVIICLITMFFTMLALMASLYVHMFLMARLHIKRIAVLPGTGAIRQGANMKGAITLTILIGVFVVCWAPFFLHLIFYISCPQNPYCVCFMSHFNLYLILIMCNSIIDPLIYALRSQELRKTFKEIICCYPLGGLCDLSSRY

Row | % Inhibition at 1 µM [1] [%] | % Inhibition at 1 µM [2] [%] | % Inhibition at 1 µM [3] [%] | % Inhibition at 1 µM [4] [%] | % Inhibition at 1 µM [5] [%] | % Inhibition at 1 µM [6] [%] | % Inhibition at 1 µM [7] [%] | % Inhibition at 1 µM [8] [%] | Binder
1 | 53 | 89 | 53 | 66 | – | – | – | – | YVCGH[dF]RWDRF-NH2 (also: oxorhenium(V) N3S1 chelate complex at Cys3) [metallopeptide 5-9]
2 | 100 | 99 | 100 | 99 | 99 | 100 | 99 | 100 | YVXGHFRWDRF (Nle 3 (X in letters); D-Phe 6; C-terminal amide, not complexed to Re) [[Nle3, D-Phe6]-γ-MSH parent polypeptide Tyr-Val-Nle-Gly-His-D-Phe-Arg-Trp-Asp-Arg-Phe-NH2]
3 | 88 | 89 | 70 | 69 | – | – | – | – | YV[Nle]GC[dF]RWDRF-NH2 (also: oxorhenium(V) N3S1 chelate: C5 SG + backbone N of X3, G4, C5, bridge at 5 via Re(V)=O, other end not in the chain) [metallopeptide 5-7]
4 | 21 | 74 | 26 | 4 | – | – | – | – | YV[Nle]GHCRWDRF-NH2 (also: oxorhenium(V) N3S1 chelate: C6 SG + backbone N of G4, H5, C6, bridge at 6 via Re(V)=O, other end not in the chain) [metallopeptide 5-6]
5 | 100 | 100 | 93 | 97 | – | – | – | – | YV[Nle]GH[dF]RWCRF-NH2 (also: oxorhenium(V) N3S1 chelate: C9 SG + backbone N of R7, W8, C9, bridge at 9 via Re(V)=O, other end not in the chain) [metallopeptide 5-3]
6 | 58 | 86 | 11 | 18 | – | – | – | – | YV[Nle]GH[dF]RCDRF-NH2 (also: oxorhenium(V) N3S1 chelate: C8 SG + backbone N of F6, R7, C8, bridge at 8 via Re(V)=O, other end not in the chain) [metallopeptide 5-4]
7 | 98 | 95 | 89 | 86 | – | – | – | – | YV[Nle]CH[dF]RWDRF-NH2 (also: oxorhenium(V) N3S1 chelate: C4 SG + backbone N of V2, X3, C4, bridge at 4 via Re(V)=O, other end not in the chain) [metallopeptide 5-8]
8 | 28 | 67 | 15 | 26 | – | – | – | – | YV[Nle]GH[dF]CWDRF-NH2 (also: oxorhenium(V) N3S1 chelate: C7 SG + backbone N of H5, F6, C7, bridge at 7 via Re(V)=O, other end not in the chain) [metallopeptide 5-5]
9 | 61 | 95 | 39 | 58 | – | – | – | – | YV[Nle]GH[dF]RWDCF-NH2 (also: oxorhenium(V) N3S1 chelate: C10 SG + backbone N of W8, D9, C10, bridge at 10 via Re(V)=O, other end not in the chain) [metallopeptide 5-2]
